The series can be described thus: label from the status in PepcDB records.
Turning to “MAKDKTSRKAPMGSGRDALMQAFREAQRPLRLDMLLRILGLHRKEKRTLEESLEALQAEGRILRLRGGAWGLTDHMKMVTGTLQVQRTGMGFVLPEDRRRTDIYVHPTQMGEAWHGDKVVVVLLPGGRGRNPEGRIVRILERGLKEMPARVVKRMGRQGLLCRAADARIKVHFLVDVTGLEGKPQKDDILVVSPGERVEDGLWAATAVRHLGSEDDVSVQERLVKINHGVPTEFPVPVLEEAATLPPAPGGGDFADRIDLRHMEFVTIDGARARDFDDAICVEEQGKGWRLWVAIADVSHYVRPGSAMDREALERSNSYYFPQSVEPMLPEALSNGLCSLNPRVPRLAMVAEIYFFGEGSPGKCKFYPAVIESKARLTYGQVNRALLLGDEEERLVLRPVLPMLEQAEKLARVLHQRRRERGSLDFDLPEPEIAFNIYGETVDIRRKVRHFGHQIVEEFMIAANEAVARFLTEKEADFLYRVHPEPEPEKLSALFKVLAGTDIAQGLPREASAGALQTVLQKAHGSAQEFLISRLTLRTMMQARYSPEHEGHFGLASACYCHFTSPIRRYADLVVHRALKRALGGDPGPTPAGGKLVAIADQLSQHERKAMEAEREILKRLTVLLLRSRVGETLTGVISSILDFGFFVELNEVLADGMVRLSSLDDDYYAFIPERQELRGERTGRTFRLGQQVKVRLADVNVGRLEVNLELVREEGDDTPVPTRRRSAASGRDGSGRDGSGRGGRGRSRHDATPRVKASPDASPEVSADGDMPDGDRLPPWIRAATEEDDPRDTTRTRRRRDDDASSRDGGDRRRGRSRNEGARGAGNPARGKAPRDGAGGDRKKGDGRDGKDGQAGGKPAGKGQSRKGKASSHRKGQGRVKKSDE”, the protein production result is “failed”. As to “MDFLGILCLLILATTLAGHFAHRAGIPAVIGEILVGVILGPALLNWVHLTTLVQTFSDIGVVVLMFIGGLESNLALLRKYLRPAIIVAIIGVIFPVVIMGLASRFFQFSWFESLFIGVIFSATSVSISVEVLKEFKVLDTKEGATILGAAVADDIIGVILLSIMIAMMGGQSGVAQTNLGIVLLEQVGFFIGVFIVIKWVAPYLMRLSDHLLMAASPTIMAIIICLALAWLAELVGLSGAIGAFFAGVAIAQTDYQHVVDVSIEPVGYTTFIPLFFVSVGLNMTFKGVWQSLPFIVVMTVLGVLTKLWGCGLGAKLNGFSRHSNYLVGAGMISRGEMALITAQIGFSAHLLSNDYYSDIILVIIVVTMIAPFVLKNAIHRAGQVTATHSIIEEH”, the protein production entry is “failed”. For the sequence “MMKKTAAIISACMLTFALSACSGSNYVMHTNDGRTIVSDGKPQTDNDIGMISYKDANGNKQQINRTDVKEMVELEQLEHHHHHH”, the protein production entry is on record as “failed”.

As to “MEEKKIVELEKQVEDYRQFGFVLLSLSIFLFIGLVLPPSYAPQVAAEWLIAGIGGALTFAWLFNRKVVQCQQKLFEEEDQQ”, the protein production result was “failed”. Next, “MAPRQLAAADLAVGQVVAQREIRLDAQAFAQFAALTGDAHPIHYDAGYVQRQGLRAPIAHGLLLVAISALGATPLSAQLHDAMVAMVGVEAVFMRPVYVDETVQCVYRVAQIEHVAKGRSKTTIAVSIHTTDAPPDAARQAHCVVHLTFLLKTHLQGLEHHHHHH”: “failed”; “MPLVNSHIVEECLPFTSLRLDPEDINLSMGAGYVPDAEIQAISDALETEIAGICTPRFLYALFDAEPAGTCEVGVNGISLKTGSVITPYLKDAAGYVLFVATAGYEFEAFQHRIGSQGDILREFLLDAYGSAIAEAVVREVCRKVESRMFPLGYGVSHPYSPGYCGWHVTQQQLLFSCLPEFPCGVRLSDSSLMSPIKSVSGIIAYGPCIVKRKYGCELCGKADCYKNRNKLNRLEHHHHHH”: “not failed”.

With “MAEGKDRNFVTALARGLDVLRSFRPGEVLLTNTDLSERTGLPKPTVSRLTYTLCQLGYLVQDRQSGAYRLGVGVLQLGMGVLAGLDICDRAAEVLRGLRTGANPYITAALGEVHRAEVIYVAVSRSRENVSLSMHVGSRLPLFRSAIGRAILVGMEAEEREAAIAAGMRDLGVPEAELRSQIARAVEEYAVRGYCTGYGDWRADVNGIAVPVLSLGGARLHGLNLGGPSFHVTQEELERVFAPLLIEAGRSLGMVP”, the protein production result was “failed”. As to “MDSKIDFSSYSLNDLYSSAESIDRDVYPERAKEIDGLIRQKEAEFPEEIDTTKDIGEKATKSDRLMAAIIDGVIGIISLVPVIFYVGFDSFKEPSLSLLGILFIYGVFVTMVLHGYLLYYYGQTIGKNYMSIRIENLDGTKASLATIYFKRMLPMQLIGLIPSFGQFISGIVNPLFIFGKQRRCLHDYLAKTKVSYTGT”, the protein production entry is given as “failed”. In the case of “MPDINESMLNQFRPVIRRFIDPIADRIALPADYITLTGFLVACAASAGYASGSLITGAALLAASGFIDVLDGAVARRRFRPTAFGGFLDSTLDRLSDGIIIIGITAGGFTGLLTGLLALHSGLMVSYVRARAESLGIECAVGIAERAERIIIILAGSLAGYLIHPWFMDAAIIVLAALGYFTMIQRMIYVWQRLK”, the protein production entry is “failed”. Then “MRHVSNGDPVRVVIVTDGAYGAPAESGDYAQTRRRESTRAAAILGYGAPEFWNLPDRGLEYGERLIQRVLTAMEDHAAELVYAPSWWEVHPDHRVLALAATEAVRRCTRPLRLAMYEVGVPLQPNALLDITDLAERKASAVACFSSQLAQQDYDEQIASLNRFRTYTLPRTVRAAEGYLVLAAEELRNRIPRMMTQKDRLAVRGETGDTAATPLVSVIIPSMDGPRLKEALDSVALQTYPRIEAVVIDAKGEGHTPLPRWCGRFPLRFIPSDISLSRGRAADVGLEHAEGDYLVFLGEDDVFQPGDVASLVAEAARKQGTGLCSHADRRMTVFSGGVVDGSPRTGKPGKPAFLPLHAVLFDRSLAELRCRFDGDANVPEDGDFWDQAMQHVASIHPGACRHGHGLPGGEAGRHTIVRLPPWTSPAPLPPGASLARTPHPTERDSLRRRIQRAGRRIYETPPRGLTDALVRTAYRIWARLSSDSMITNDGKGTLEHHHHHH”, with “failed”; and “MKSAYIFFNPKSGKDEQALAKEVKSYLIEHDFQDDYVRIITPSSVEEAVALAKKASEDHIDLVIPLGGDGTINKICGGVYAGGAYPTIGLVPAGTVNNFSKALNIPQERNLALENLLNGHVKSVDICKVNDDY”, with “failed”. “MKEELKREYERIKDRISPEEFEELIEKKKEELGDIGFMDDLTIASTVVDDILKEKNTMLSEKPEHRMDTISKLEEGAETPVTGRVMKISSPRTFTTRKGREGKLANVIIADDTGELRAVFWTENIKLLKKFREGDVIRIKDVNIRGGFGGRKEAHLMPRSTVEVLDPEDYPEFPEYREEITPIGDLVEDDEVNVIARITGVSRVRTFERDGREGRFISLDIMDATGSTTYTLWNNDVNLVEELGLKEGDAVKILWAQPRRRDDKVTLTHTSLTRVVPGEYDVPEFREELVKIGDLHEMRNVTVMGLVTKVNDPVEFERNDGTTGSVKSIEIADDTGSARVTLWDEDTRIKINKGDIIRISGANVEFDDFNQSYRINTNFNTRITLNPESDGALLKVLEEYREQMRPMKISEILEMEDEGEEVDVVGRIFSLSDPREFEREDGTGIVRSMELADETGKIRISLWDEKAEKPMNIGDAVRIENARIRLGLYSVELSAGRTTRIVNPLPEDMEDLPSFEELEEMLYQTKKIADLEEDDRNIRIIARVVDLFEPREFQRGDGTPGLVRTAEFADDTGSIRASLWDDAAEKPLSIGDPVKIENPRVVFRDDMGGGRLETQHRKQFKD”: the protein production entry was “failed”. As for “MNHTLQFPKAPEHLLQALNEVIPKCKLMAQQLPETAISLWLIPPVFPTERLDDDIIRRIWSDTPYWIFCWASGLAMAQWLLAEPHHVKDKVVLDFGAGSGVVAIAAKMAGAKRVICCDIDETSLNACRENALLNNVELEYLNDLYLSESVDILLAADVLYDQSNRFFLDEFLKFAPEVWVADSRVKNFSHPGYIKIDERSATTWPDLDEAKEFRNVSFYKTLEHHHHHH”, the protein production result is listed as “failed”. With “MVIDQTDPIYVLFHDEEWGVPVRDDKKLFELLVFSQALAEFSWPSILRRRDDFRKLFEEFDPSAIAQFTEKRLMSLRVNGCLILSEQKLRAIVENAKSVLKVKQEFGSFSNYCWRFVNHKPLRNGYRYGRQVPVKSPKAEYISKDMMQRGFRCVGPTVMYSFLQASGIVNDHLTACFRYQECNVETERETKSHETETKLDLHSPLLV”, the protein production result is “failed”. For “MESIGLVEVNSIARGIEAADAMLKAAQVDLLEAKPVCPGKYIVLICGDVAAVQSSVTAGKTMAAHSVLDDFILPNVHPQVLTAISAATPLTLIKALGIIETFSIASLIVAADTAAKTGQVDLVEIRIGMGIGGKSFVTLTGDVASVESSVAAGVMLASERGMLVDKVVIPSPHDHLKRCLC”, the protein production entry is “not failed”. Regarding “MIGKEVLNYTIVSLIGKGGMGSVYLAEHKYIKQQKVAIKVINSDMVNDFTRQRLKEEAEHLASLNHQNIVRFHDYHIDELGSIYLIMEYADGISLDKYIQTVSGLIVEDKICPLFEPILDAVEYAHEHNIIHRDIKPANIIITKEGIPKILDFGIATIINRESVEKDDMVMGTPSYMSPEQVRGDHLDSRSDIYSLGVMLHQMLTGNAPYDTTTLTEYDINKKVVEEPLPRMRTYYKYVSDKVQKIVDKATAKEPGERYQTCDDFKKALHRVIYPPKIPKWVWTSVAAIVLLMIGGGVYFWDYNRTKVYYYKDYVEQWGVPQGIGELSSREMSHVNRLYRFEYKKHKLQRMSHVNSKENIIEDGESERNERPLDMLLYYTDKGNISRAKVLDRSGKVLYVKSYNDKLNTVIFQYDDEYGTEKTLGAQTIGYVRALEDNGVEKGKISRWLLEYDENGYVSTIRYAGFQNVLVGDAHNIYGRKYVRDEKGRVLSEHYLSFDGTPKATKWGLGMKKFYYDENDNWVKAEYLTVDGKPAYDDADGIGVYVMEYDKYGNVVYALHQDADGKLMLPKKNGVAGIKYIYDQHGFPIEASYLDIDRKACFIPNDGFSKVVRKFDDNGYIINQTFYDVDGNQCLSNDGNSSAKYINDNRGNVQEMWFYGLDGKLNEINEGYAGVKLNYDSIGNIIEYVTYGIDQKPCLKSDGTAGYKAEYNDMNLITKLVNIGVDLSPCKDNNGIVIAARDYDKRGNQIKVSFYDAGGKTLVLSNENIAGWNSVYDDNGNETERSFFDDKNNLTVCAGSCAKWISKFDEQGNETNLRYYNLSGKLMMVNGSAGANYKRDKRGNILEKIEIGTDEQLASGKLIARYKYDKFDNQIEFSVYDRNNKPALNSLDYHKYVCIYNSRNQRIEIEYYGKDGELTSYNNDKYAIQKDEYDERGYIVRTSYYGKDKQLVVSNEGWASSTREYDVLGNVLKQSFFGIDGKPTDPKVMVPEGLCRYDRWGNRIYLAAGDGKGHLIINPKTGWSIQKSEYNSRGKLLSEAYFDENEKPLISRMDGYHKAVISYTSSGNEKEKCYYDIMNKPMLCPDGYFKEVYEYNDNQQAISLSYLGVNGKSIDCKDGYSKIELTYNKDGEMESRKYTNASGRILLTQKWNGKEWVNSSPEPISRNWQQDVRKFNAELPIDFGENTKHLVASSFLVTGSNSCELSFKTPKSKYEMTEAEVNEYFASIKLVVTKIKSESLPSSVVITGILFDSKGRQLRSIRK”, the protein production entry is recorded as “failed”.

Take “MHRTTRIKITELNPHLMCVLCGGYFIDATTIIECLHSFCKTCIVRYLETSKYCPICDVQVHKTRPLLNIRSDKTLQDIVYKLVPGLFKNEMKRRRDFYAAHPSADAANGSNEDRGEVADEDKRIITDDEIISLSIEFFDQNRLDRKVNKDKEKSKEEVNDKRYLRCPAAMTVMHLRKFLRSKMDIPNTFQIDVMYEEEPLKDYYTLMDIAYIYTWRRNGPLPLKYRVRPTCKRMKISHQRDGLTNAGELESDSGSDKANSPAGGVPSTSSCLPSPSTPVQSPHPQFPHISSTMNGTSNSPSGNHQSSFANRPRKSSVNGSSATSSG”: the protein production result is given as “failed”. Then “MNKRNWTAYYNSTKQNTLPRKSLLKAIANFDKEKINLSKSAIDLGCGAGIDVMELLRCGWSVIAIDSQLSAIDSLLSSAQELTCANKLKTIISSFEALDSLPKVNLINASFSLPFLKPVYFYKFWSVILKGLKPGGRFSGSFFGFNDFWNTRTDMTFLNREMICHLFSQFKIEYFQEEEKDEMDALGYYKHWHKFFIVAKKIALEHHHHHH”, with “failed”.

(Values after a protein production outcome set (Wang et al. 2014).)
